Measured values taken from article PMC4065035, “A Highly Functional Synthetic Phage Display Library Containing over 40 Billion Human Antibody Clones” (PLoS ONE, 2014).

Tests used:
[1] = biological target: T1, murine recombinant BCD domains of tenascin-C (Mus musculus, UniProt Q80YX1); test: SPR; Biacore 3000; CM5 chip coated with murine or human recombinant BCD domains of tenascin-C; antibody (monomeric fraction of scFv, or SIP) injected at different concentrations, 10 µL/min; regeneration with 10 mM HCl; settings: both partners purified
T1 construct: tenascin-C, mouse, alternatively spliced segment of the three fibronectin type-III homology domains B, C and D; A biotinylated version was used for the panning; the Biacore chip was a coated CM5 chip; also called murine BCD; murine BCD antigen; source: E. coli (pQE12 vector), purified over NiNTA resin

[2] = biological target: T2, human recombinant BCD domains of tenascin-C (Homo sapiens, UniProt P24821); test: as above; settings: both partners purified
T2 construct: tenascin-C, human, alternatively spliced segment of the three fibronectin type-III homology domains B, C and D; AVI-Tag followed by the His-Tag at the C-terminus; Purification of the human construct is not clearly told; also called human BCD; human BCD domain; source: E. coli (pUC119 vector)

B1: scFv(G5), human antibody G5 in monomeric scFv format (scFv, V domains shown)
VH: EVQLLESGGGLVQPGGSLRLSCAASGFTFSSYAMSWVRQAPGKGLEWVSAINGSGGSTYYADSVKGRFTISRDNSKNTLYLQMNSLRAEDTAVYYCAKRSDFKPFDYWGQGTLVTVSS
VL: SSELTQDPAVSVALGQTVRITCQGDSLRSYYASWYQQKPGQAPVLVIYGKNNRPSGIPDRFSGSSSGNTASLTITGAQAEDEADYYCNSSGFPRTLVVFGGGTKLTVL
notes: VH of G5; library VH is on the DP47 germline with S52N (numbering of Tomlinson et al.) and a randomised CDR3 (residues 95-100); flexible polypeptide linker that connects VH and VL in the library's scFv format; VL of G5; Library scFv are detected by the anti-myc antibody 9E10; also called G5 antibody clone; anti-BCD antibody G5; source: E. coli (pHEN1 phagemid, IPTG induction), purified over …
Kd [1]: 31 nM | koff [1]: 0.0025 s⁻¹ | kon [1]: 79000 M⁻¹ s⁻¹ | Kd [2]: 27 nM | koff [2]: 0.003 s⁻¹ | kon [2]: 110000 M⁻¹ s⁻¹
